Measured values as given in patent publication US20140356358A1 (Amgen, published 2014).

Tests used:
[1] = target: T1, human neonatal Fc receptor (hFcRn) (human, UniProt P55899 24-290; P61769 21-119); experiment: phage ELISA pH 6
T1 construct: Biotinylated in the ELISA, Octet and yeast assays; also called human FcRn; huFcRn

[2] = target: T1, human neonatal Fc receptor (hFcRn); experiment: phage ELISA pH 7.4
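Further: higher score means stronger binding and above about 3 to 5 exceeds background.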

| ELISA score [1] | ELISA score [2] | Binder |
| --- | --- | --- |
| 51.2 | 0.5 | variant Fc-fragment Fc-5-66 (other, soluble elsewhere) EPKSCDKTHTCPPCPAPELLGGPSVFLFPPKPKDTLMISRTPEVTCVVVDVSHEDPEVKFNWYVDGVEVHNAKTKPREEQYNSTYRVVSVLTVLHQDWLNGKEYKCKVSNKALPAPIEKTISKAKGQPREPQVYTLPPSRDELTKNQVSLTCLVKGFYPSDIAVEWESNGGCERFHHACGGGQPENNYKTTPPVLDSDGSFFLYSKLTVDKSRWQQGNVFSCSVMHEALHNHYTQKSLSLSPGK |
| 79.5 | 0.7 | L6A isolate with insertion SEQ ID NO: 400 (other) EPKSCDKTHTCPPCPAPELLGGPSVFLFPPKPKDTLMISRTPEVTCVVVDVSHEDPEVKFNWYVDGVEVHNAKTKPREEQYNSTYRVVSVLTVLHQDWLNGKEYKCKVSNKALPAPIEKTISKAKGQPREPQVYTLPPSRDELGGCRAGYGDASCGGTKNQVSLTCLVKGFYPSDIAVEWESNGQPENNYKTTPPVLDSDGSFFLYSKLTVDKSRWQQGNVFSCSVMHEALHNHYTQKSLSLSPGK |
| 43.2 | 0.3 | L6B isolate with insertion SEQ ID NO: 469 (other) EPKSCDKTHTCPPCPAPELLGGPSVFLFPPKPKDTLMISRTPEVTCVVVDVSHEDPEVKFNWYVDGVEVHNAKTKPREEQYNSTYRVVSVLTVLHQDWLNGKEYKCKVSNKALPAPIEKTISKAKGQPREPQVYTLPPSRDELGGCEMMKNKSGCGGTKNQVSLTCLVKGFYPSDIAVEWESNGQPENNYKTTPPVLDSDGSFFLYSKLTVDKSRWQQGNVFSCSVMHEALHNHYTQKSLSLSPGK |
| 43.6 | 0.2 | L6B isolate with insertion SEQ ID NO: 468 (other) EPKSCDKTHTCPPCPAPELLGGPSVFLFPPKPKDTLMISRTPEVTCVVVDVSHEDPEVKFNWYVDGVEVHNAKTKPREEQYNSTYRVVSVLTVLHQDWLNGKEYKCKVSNKALPAPIEKTISKAKGQPREPQVYTLPPSRDELGGCTLGSAPTLCGGTKNQVSLTCLVKGFYPSDIAVEWESNGQPENNYKTTPPVLDSDGSFFLYSKLTVDKSRWQQGNVFSCSVMHEALHNHYTQKSLSLSPGK |
| 68.9 | 0.8 | L6B isolate with insertion SEQ ID NO: 410 (other) EPKSCDKTHTCPPCPAPELLGGPSVFLFPPKPKDTLMISRTPEVTCVVVDVSHEDPEVKFNWYVDGVEVHNAKTKPREEQYNSTYRVVSVLTVLHQDWLNGKEYKCKVSNKALPAPIEKTISKAKGQPREPQVYTLPPSRDELGGCLKGMHGSACGGTKNQVSLTCLVKGFYPSDIAVEWESNGQPENNYKTTPPVLDSDGSFFLYSKLTVDKSRWQQGNVFSCSVMHEALHNHYTQKSLSLSPGK |
| 49.2 | 0.4 | L6B isolate with insertion SEQ ID NO: 457 (other) EPKSCDKTHTCPPCPAPELLGGPSVFLFPPKPKDTLMISRTPEVTCVVVDVSHEDPEVKFNWYVDGVEVHNAKTKPREEQYNSTYRVVSVLTVLHQDWLNGKEYKCKVSNKALPAPIEKTISKAKGQPREPQVYTLPPSRDELGGCNQSSSREACGGTKNQVSLTCLVKGFYPSDIAVEWESNGQPENNYKTTPPVLDSDGSFFLYSKLTVDKSRWQQGNVFSCSVMHEALHNHYTQKSLSLSPGK |
| 58.9 | 0.8 | L6B isolate with insertion SEQ ID NO: 427 (other) EPKSCDKTHTCPPCPAPELLGGPSVFLFPPKPKDTLMISRTPEVTCVVVDVSHEDPEVKFNWYVDGVEVHNAKTKPREEQYNSTYRVVSVLTVLHQDWLNGKEYKCKVSNKALPAPIEKTISKAKGQPREPQVYTLPPSRDELGGCVQHKMGVVCGGTKNQVSLTCLVKGFYPSDIAVEWESNGQPENNYKTTPPVLDSDGSFFLYSKLTVDKSRWQQGNVFSCSVMHEALHNHYTQKSLSLSPGK |
| 41.2 | 0.2 | L6A isolate with insertion SEQ ID NO: 474 (other) EPKSCDKTHTCPPCPAPELLGGPSVFLFPPKPKDTLMISRTPEVTCVVVDVSHEDPEVKFNWYVDGVEVHNAKTKPREEQYNSTYRVVSVLTVLHQDWLNGKEYKCKVSNKALPAPIEKTISKAKGQPREPQVYTLPPSRDELGGCAKDQHTGSCGGTKNQVSLTCLVKGFYPSDIAVEWESNGQPENNYKTTPPVLDSDGSFFLYSKLTVDKSRWQQGNVFSCSVMHEALHNHYTQKSLSLSPGK |
| 54.9 | 0.6 | L6B isolate with insertion SEQ ID NO: 440 (other) EPKSCDKTHTCPPCPAPELLGGPSVFLFPPKPKDTLMISRTPEVTCVVVDVSHEDPEVKFNWYVDGVEVHNAKTKPREEQYNSTYRVVSVLTVLHQDWLNGKEYKCKVSNKALPAPIEKTISKAKGQPREPQVYTLPPSRDELGGCNATLSGYLCGGTKNQVSLTCLVKGFYPSDIAVEWESNGQPENNYKTTPPVLDSDGSFFLYSKLTVDKSRWQQGNVFSCSVMHEALHNHYTQKSLSLSPGK |
| 44 | 0.2 | L6A isolate with insertion SEQ ID NO: 466 (other) EPKSCDKTHTCPPCPAPELLGGPSVFLFPPKPKDTLMISRTPEVTCVVVDVSHEDPEVKFNWYVDGVEVHNAKTKPREEQYNSTYRVVSVLTVLHQDWLNGKEYKCKVSNKALPAPIEKTISKAKGQPREPQVYTLPPSRDELGGCDRFQNVNVCGGTKNQVSLTCLVKGFYPSDIAVEWESNGQPENNYKTTPPVLDSDGSFFLYSKLTVDKSRWQQGNVFSCSVMHEALHNHYTQKSLSLSPGK |
| 47.2 | 0.4 | L6B isolate with insertion SEQ ID NO: 460 (other) EPKSCDKTHTCPPCPAPELLGGPSVFLFPPKPKDTLMISRTPEVTCVVVDVSHEDPEVKFNWYVDGVEVHNAKTKPREEQYNSTYRVVSVLTVLHQDWLNGKEYKCKVSNKALPAPIEKTISKAKGQPREPQVYTLPPSRDELGGCGEYNYVGGCGGTKNQVSLTCLVKGFYPSDIAVEWESNGQPENNYKTTPPVLDSDGSFFLYSKLTVDKSRWQQGNVFSCSVMHEALHNHYTQKSLSLSPGK |
| 42.2 | 0.4 | L6B isolate with insertion SEQ ID NO: 472 (other) EPKSCDKTHTCPPCPAPELLGGPSVFLFPPKPKDTLMISRTPEVTCVVVDVSHEDPEVKFNWYVDGVEVHNAKTKPREEQYNSTYRVVSVLTVLHQDWLNGKEYKCKVSNKALPAPIEKTISKAKGQPREPQVYTLPPSRDELGGCPNDTVRDACGGTKNQVSLTCLVKGFYPSDIAVEWESNGQPENNYKTTPPVLDSDGSFFLYSKLTVDKSRWQQGNVFSCSVMHEALHNHYTQKSLSLSPGK |
| 41.8 | 0.3 | L6B isolate with insertion SEQ ID NO: 473 (other) EPKSCDKTHTCPPCPAPELLGGPSVFLFPPKPKDTLMISRTPEVTCVVVDVSHEDPEVKFNWYVDGVEVHNAKTKPREEQYNSTYRVVSVLTVLHQDWLNGKEYKCKVSNKALPAPIEKTISKAKGQPREPQVYTLPPSRDELGGCSFSRHMGACGGTKNQVSLTCLVKGFYPSDIAVEWESNGQPENNYKTTPPVLDSDGSFFLYSKLTVDKSRWQQGNVFSCSVMHEALHNHYTQKSLSLSPGK |
| 50.1 | 0.4 | L6B isolate with insertion SEQ ID NO: 454 (other) EPKSCDKTHTCPPCPAPELLGGPSVFLFPPKPKDTLMISRTPEVTCVVVDVSHEDPEVKFNWYVDGVEVHNAKTKPREEQYNSTYRVVSVLTVLHQDWLNGKEYKCKVSNKALPAPIEKTISKAKGQPREPQVYTLPPSRDELGGCYGKAGMRDCGGTKNQVSLTCLVKGFYPSDIAVEWESNGQPENNYKTTPPVLDSDGSFFLYSKLTVDKSRWQQGNVFSCSVMHEALHNHYTQKSLSLSPGK |
| 45.2 | 0.3 | L6A isolate with insertion SEQ ID NO: 465 (other) EPKSCDKTHTCPPCPAPELLGGPSVFLFPPKPKDTLMISRTPEVTCVVVDVSHEDPEVKFNWYVDGVEVHNAKTKPREEQYNSTYRVVSVLTVLHQDWLNGKEYKCKVSNKALPAPIEKTISKAKGQPREPQVYTLPPSRDELGGCFTNYASEKCGGTKNQVSLTCLVKGFYPSDIAVEWESNGQPENNYKTTPPVLDSDGSFFLYSKLTVDKSRWQQGNVFSCSVMHEALHNHYTQKSLSLSPGK |
| 43.8 | 0.6 | L6A isolate with insertion SEQ ID NO: 467 (other) EPKSCDKTHTCPPCPAPELLGGPSVFLFPPKPKDTLMISRTPEVTCVVVDVSHEDPEVKFNWYVDGVEVHNAKTKPREEQYNSTYRVVSVLTVLHQDWLNGKEYKCKVSNKALPAPIEKTISKAKGQPREPQVYTLPPSRDELGGCERHFPALFCGGTKNQVSLTCLVKGFYPSDIAVEWESNGQPENNYKTTPPVLDSDGSFFLYSKLTVDKSRWQQGNVFSCSVMHEALHNHYTQKSLSLSPGK |
| 42.3 | 0.2 | L6B isolate with insertion SEQ ID NO: 471 (other) EPKSCDKTHTCPPCPAPELLGGPSVFLFPPKPKDTLMISRTPEVTCVVVDVSHEDPEVKFNWYVDGVEVHNAKTKPREEQYNSTYRVVSVLTVLHQDWLNGKEYKCKVSNKALPAPIEKTISKAKGQPREPQVYTLPPSRDELGGCLRNFMKQSCGGTKNQVSLTCLVKGFYPSDIAVEWESNGQPENNYKTTPPVLDSDGSFFLYSKLTVDKSRWQQGNVFSCSVMHEALHNHYTQKSLSLSPGK |
| 48.5 | 0.2 | L6A isolate with insertion SEQ ID NO: 458 (other) EPKSCDKTHTCPPCPAPELLGGPSVFLFPPKPKDTLMISRTPEVTCVVVDVSHEDPEVKFNWYVDGVEVHNAKTKPREEQYNSTYRVVSVLTVLHQDWLNGKEYKCKVSNKALPAPIEKTISKAKGQPREPQVYTLPPSRDELGGCNPVSTGAYCGGTKNQVSLTCLVKGFYPSDIAVEWESNGQPENNYKTTPPVLDSDGSFFLYSKLTVDKSRWQQGNVFSCSVMHEALHNHYTQKSLSLSPGK |
| 25 | 0.4 | L5 isolate with insertion SEQ ID NO: 490 (other) EPKSCDKTHTCPPCPAPELLGGPSVFLFPPKPKDTLMISRTPEVTCVVVDVSHEDPEVKFNWYVDGVEVHNAKTKPREEQYNSTYRVVSVLTVLHQDWLNGKEYKCKVSNKALPAPIEKTISKAKGQPREPQVYTLPPSRDELTKNQVSLTCLVKGFYPSDIAVEWESNGGCDRQVTGFCGGGQPENNYKTTPPVLDSDGSFFLYSKLTVDKSRWQQGNVFSCSVMHEALHNHYTQKSLSLSPGK |
